Data on 13 substances can be found in article PMC5511190.

Sequence of GST-LRRK2 WD40 G2385R (human) (Q5S007 whole entry G2385R, the tested form may be a part): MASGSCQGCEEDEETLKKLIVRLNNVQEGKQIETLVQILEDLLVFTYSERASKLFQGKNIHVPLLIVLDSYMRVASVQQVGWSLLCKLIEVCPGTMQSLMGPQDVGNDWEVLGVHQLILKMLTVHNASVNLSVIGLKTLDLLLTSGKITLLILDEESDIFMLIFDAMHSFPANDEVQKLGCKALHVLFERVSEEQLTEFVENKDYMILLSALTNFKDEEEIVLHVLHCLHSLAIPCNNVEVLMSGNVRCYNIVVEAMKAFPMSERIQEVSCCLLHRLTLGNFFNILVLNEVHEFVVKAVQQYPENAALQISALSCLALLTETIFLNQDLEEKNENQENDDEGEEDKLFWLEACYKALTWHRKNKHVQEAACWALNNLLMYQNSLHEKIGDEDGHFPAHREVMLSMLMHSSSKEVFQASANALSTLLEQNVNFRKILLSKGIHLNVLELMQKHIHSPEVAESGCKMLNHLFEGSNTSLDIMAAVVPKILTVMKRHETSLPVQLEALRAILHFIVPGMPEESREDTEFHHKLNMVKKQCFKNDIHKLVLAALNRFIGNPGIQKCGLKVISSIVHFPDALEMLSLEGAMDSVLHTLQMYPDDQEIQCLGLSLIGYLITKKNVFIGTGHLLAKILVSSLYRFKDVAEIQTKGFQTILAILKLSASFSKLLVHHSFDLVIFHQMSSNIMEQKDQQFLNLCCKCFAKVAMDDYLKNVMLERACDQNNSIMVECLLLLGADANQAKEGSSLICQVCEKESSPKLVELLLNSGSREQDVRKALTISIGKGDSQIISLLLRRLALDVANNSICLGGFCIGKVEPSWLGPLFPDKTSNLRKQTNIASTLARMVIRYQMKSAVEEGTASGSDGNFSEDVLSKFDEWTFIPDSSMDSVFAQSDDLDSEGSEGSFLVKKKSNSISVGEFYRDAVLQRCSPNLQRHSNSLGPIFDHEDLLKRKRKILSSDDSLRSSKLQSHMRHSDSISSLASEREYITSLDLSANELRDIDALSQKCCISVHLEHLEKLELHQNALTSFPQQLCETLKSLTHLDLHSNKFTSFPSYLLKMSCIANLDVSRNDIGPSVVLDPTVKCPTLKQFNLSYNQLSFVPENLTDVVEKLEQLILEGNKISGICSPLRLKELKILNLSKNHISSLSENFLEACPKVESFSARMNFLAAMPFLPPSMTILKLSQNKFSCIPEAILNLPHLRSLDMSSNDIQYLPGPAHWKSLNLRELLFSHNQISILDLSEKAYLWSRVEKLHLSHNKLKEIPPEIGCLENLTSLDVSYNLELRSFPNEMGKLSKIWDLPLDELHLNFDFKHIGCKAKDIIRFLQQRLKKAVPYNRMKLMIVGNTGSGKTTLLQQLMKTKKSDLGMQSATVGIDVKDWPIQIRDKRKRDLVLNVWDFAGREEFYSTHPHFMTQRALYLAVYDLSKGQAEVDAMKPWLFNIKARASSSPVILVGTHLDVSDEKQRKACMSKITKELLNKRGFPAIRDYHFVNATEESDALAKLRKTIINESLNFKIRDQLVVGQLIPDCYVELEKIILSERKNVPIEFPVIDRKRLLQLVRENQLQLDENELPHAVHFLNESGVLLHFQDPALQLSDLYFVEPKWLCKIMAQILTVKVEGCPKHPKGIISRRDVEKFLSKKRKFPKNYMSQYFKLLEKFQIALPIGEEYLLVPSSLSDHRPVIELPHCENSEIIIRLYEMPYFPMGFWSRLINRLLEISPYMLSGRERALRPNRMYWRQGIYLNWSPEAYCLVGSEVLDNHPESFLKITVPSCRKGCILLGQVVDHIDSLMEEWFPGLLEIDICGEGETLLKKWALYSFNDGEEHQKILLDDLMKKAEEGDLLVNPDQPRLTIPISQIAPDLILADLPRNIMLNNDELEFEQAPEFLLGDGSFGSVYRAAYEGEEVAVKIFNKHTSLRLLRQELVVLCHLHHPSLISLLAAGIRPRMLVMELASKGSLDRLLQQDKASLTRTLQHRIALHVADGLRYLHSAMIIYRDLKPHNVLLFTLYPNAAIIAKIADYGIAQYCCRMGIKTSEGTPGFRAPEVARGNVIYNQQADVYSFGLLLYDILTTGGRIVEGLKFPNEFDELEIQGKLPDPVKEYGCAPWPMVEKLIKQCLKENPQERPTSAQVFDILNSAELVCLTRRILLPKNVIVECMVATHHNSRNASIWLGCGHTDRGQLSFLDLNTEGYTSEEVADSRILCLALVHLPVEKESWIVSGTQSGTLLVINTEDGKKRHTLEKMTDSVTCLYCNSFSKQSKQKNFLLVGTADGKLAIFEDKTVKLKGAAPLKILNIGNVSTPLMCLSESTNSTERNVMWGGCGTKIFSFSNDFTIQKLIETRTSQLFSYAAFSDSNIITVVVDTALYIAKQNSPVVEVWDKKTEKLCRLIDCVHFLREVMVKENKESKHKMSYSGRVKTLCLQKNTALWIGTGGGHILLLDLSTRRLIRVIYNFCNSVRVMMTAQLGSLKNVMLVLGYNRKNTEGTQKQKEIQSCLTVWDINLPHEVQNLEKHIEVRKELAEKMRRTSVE
Sequence of Tubulin alpha-4A chain (P68368 whole entry): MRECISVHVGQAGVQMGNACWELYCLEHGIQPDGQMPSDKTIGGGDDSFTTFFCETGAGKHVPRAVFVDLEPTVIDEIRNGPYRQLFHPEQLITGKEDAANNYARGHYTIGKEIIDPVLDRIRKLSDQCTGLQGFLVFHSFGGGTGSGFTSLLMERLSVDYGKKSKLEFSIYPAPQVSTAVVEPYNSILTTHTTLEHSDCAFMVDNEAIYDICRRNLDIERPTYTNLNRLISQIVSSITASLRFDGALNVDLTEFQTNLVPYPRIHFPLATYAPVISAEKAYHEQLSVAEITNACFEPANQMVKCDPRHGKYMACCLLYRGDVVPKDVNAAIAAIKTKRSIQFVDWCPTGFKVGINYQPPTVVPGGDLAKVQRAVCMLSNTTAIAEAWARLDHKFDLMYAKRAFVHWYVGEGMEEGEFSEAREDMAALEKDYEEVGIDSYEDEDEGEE
Sequence of Coronin-1A (O89053 whole entry): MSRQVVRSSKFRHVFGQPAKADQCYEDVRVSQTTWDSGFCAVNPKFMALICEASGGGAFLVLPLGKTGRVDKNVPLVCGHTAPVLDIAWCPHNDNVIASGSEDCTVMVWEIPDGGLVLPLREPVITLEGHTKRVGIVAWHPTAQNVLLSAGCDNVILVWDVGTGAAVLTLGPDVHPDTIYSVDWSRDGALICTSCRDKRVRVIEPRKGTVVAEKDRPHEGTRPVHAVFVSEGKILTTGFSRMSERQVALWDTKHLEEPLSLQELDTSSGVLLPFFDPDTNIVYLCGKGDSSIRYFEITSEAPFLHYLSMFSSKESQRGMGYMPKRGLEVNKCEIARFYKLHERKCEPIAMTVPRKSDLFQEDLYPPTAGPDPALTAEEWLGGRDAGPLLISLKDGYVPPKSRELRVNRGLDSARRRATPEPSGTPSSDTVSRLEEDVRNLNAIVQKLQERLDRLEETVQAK
Sequence of Tubulin alpha-1A chain (P68369 whole entry): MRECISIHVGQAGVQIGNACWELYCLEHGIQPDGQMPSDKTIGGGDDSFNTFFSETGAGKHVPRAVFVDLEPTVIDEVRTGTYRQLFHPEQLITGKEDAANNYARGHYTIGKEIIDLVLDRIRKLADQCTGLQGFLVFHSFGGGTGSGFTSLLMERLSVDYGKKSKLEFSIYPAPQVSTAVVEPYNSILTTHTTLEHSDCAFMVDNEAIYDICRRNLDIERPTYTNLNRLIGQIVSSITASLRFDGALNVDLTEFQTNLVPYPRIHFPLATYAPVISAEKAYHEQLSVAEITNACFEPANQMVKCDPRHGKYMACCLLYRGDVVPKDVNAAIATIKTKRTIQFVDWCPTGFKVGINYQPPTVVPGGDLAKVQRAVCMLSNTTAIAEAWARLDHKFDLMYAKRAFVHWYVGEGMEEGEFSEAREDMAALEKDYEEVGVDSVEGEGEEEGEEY
Sequence of Actin-related protein 2/3 complex subunit 1 A (Q9R0Q6 whole entry, one chain of several): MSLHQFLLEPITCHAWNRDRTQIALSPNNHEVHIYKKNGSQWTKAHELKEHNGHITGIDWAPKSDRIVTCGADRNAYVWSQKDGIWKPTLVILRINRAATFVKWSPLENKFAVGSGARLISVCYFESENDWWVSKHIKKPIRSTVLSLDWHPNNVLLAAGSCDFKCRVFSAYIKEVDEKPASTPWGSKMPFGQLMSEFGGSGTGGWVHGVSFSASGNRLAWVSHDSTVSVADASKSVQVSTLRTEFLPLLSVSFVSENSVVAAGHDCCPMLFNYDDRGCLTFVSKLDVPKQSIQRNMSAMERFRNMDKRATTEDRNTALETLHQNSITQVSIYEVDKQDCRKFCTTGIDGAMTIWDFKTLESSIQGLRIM
Sequence of Dihydropyrimidinase-related protein 1 (P97427 whole entry): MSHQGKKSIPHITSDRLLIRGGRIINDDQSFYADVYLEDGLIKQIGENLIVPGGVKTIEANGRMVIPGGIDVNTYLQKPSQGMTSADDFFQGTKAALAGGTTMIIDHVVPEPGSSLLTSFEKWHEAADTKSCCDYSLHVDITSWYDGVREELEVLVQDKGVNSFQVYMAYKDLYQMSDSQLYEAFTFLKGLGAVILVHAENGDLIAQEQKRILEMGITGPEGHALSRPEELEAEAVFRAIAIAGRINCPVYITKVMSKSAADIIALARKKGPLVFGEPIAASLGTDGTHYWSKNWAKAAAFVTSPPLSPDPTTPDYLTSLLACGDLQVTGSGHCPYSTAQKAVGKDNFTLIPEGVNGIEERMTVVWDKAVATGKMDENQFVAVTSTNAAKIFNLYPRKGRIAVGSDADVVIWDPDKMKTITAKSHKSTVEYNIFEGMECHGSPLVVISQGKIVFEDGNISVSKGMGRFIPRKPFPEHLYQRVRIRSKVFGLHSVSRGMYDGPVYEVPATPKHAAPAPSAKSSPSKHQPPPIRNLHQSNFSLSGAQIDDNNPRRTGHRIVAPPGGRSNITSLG
Sequence of Ras-related protein Rab-1A (P62821 whole entry): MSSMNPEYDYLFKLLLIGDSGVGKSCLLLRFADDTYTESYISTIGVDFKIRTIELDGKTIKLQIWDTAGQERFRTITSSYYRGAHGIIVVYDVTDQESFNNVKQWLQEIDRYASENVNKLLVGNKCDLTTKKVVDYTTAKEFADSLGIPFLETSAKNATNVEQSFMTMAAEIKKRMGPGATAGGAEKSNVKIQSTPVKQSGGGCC

This test has as its target GST-LRRK2 WD40 G2385R (human) (UniProt Q5S007). Nature of the test: affinity purification with mass spectrometry; 5 µg GST fusion protein on glutathione-Sepharose incubated with adult mouse brain lysate or crude SV fraction (LP2) (1 mg protein) 2 h at 4 °C; washes 150 mM NaCl, 2 mM EDTA, 50 mM Tris-HCl, 0.2% Triton, pH 7.4; LC-MS/MS with label-free quantification, 4 samples per condition (GST-control, GST-WD40, GST-WD40-G2385R).
Regarding “14-3-3 protein epsilon (from UniProt P62259 1-255) (natural protein)”, the G2385R/WT (ratio of abundance in G2385R versus wild-type bait) was 0.37. Take “AP-2 complex subunit alpha-1 (from UniProt P17426 1-977) (natural protein)”: the G2385R/WT (ratio of abundance in G2385R versus wild-type bait) was determined as 0.44. For “Actin-related protein 2/3 complex subunit 1 A (from UniProt Q9R0Q6 1-370) (natural protein)” the value was 0.26. As for “Coronin-1A (from UniProt O89053 1-461) (natural protein)”, the figure is 0.37; as for “Dihydropyrimidinase-related protein 1 (from UniProt P97427 1-572) (natural protein)”, 0.42; as for “Dihydropyrimidinase-related protein 4 (from UniProt O35098 1-572) (natural protein)”, 0.46. For “F-actin-capping protein subunit alpha-2 (from UniProt P47754 1-286) (natural protein)” the value was 0.5. In the case of “Ras-related protein Rab-1A (from UniProt P62821 1-205) (natural protein)”, the G2385R/WT (ratio of abundance in G2385R versus wild-type bait) came to 0.62.

“Synapsin-2 (from UniProt Q64332 1-586) (natural protein)”: the G2385R/WT (ratio of abundance in G2385R versus wild-type bait) came to 0.53.

In the case of “Tubulin alpha-1A chain (from UniProt P68369 1-451) (natural protein)”, the G2385R/WT (ratio of abundance in G2385R versus wild-type bait) came to 0.49. On to “Tubulin alpha-4A chain (from UniProt P68368 1-448) (natural protein)”, for which the G2385R/WT (ratio of abundance in G2385R versus wild-type bait) is 0.53.

As for “Tubulin beta-4A chain (from UniProt Q9D6F9 1-444) (natural protein)”, the G2385R/WT (ratio of abundance in G2385R versus wild-type bait) is 0.39. For “Tubulin beta-4B chain (from UniProt P68372 1-445) (natural protein)” the value was 0.49.
